The text below walks through data of patent publication US20080286284A1 (published 2008).

Substitutions are numbered along the chain they refer to. “And” between values parts separate entries of the source, which are not always exact repeats. Equal entries are not always repeated.

The target of assay [1] is T1, recombinant soluble PSMA (rsPSMA) (human, UniProt Q04609 44-750).
T1 construct: also called rsPSMA dimer; secreted rsPSMA
Briefly: Biacore; Avg KD. The protocol: (§1) To determine the kinetics and affinity of the antibodies, the antibodies in crude supernatants, in purified form and in bifunctional chelate modified forms were analyzed using a Biacore 3000 instrument (Biacore Inc., Piscataway, N.J.). Biacore 3000 is a fully automated surface plasmon resonance (SPR)-based biosensor system that is designed to provide real-time kinetic data from assay formats that require no tags or labeling of compounds for biomolecular interactions. It is ideal for screening crude supernatants.
(§2) The streptavidin-coated sensor chips (SA chips, Biacore) were used to capture biotinylated anti-human IgG antibody (Sigma, St. Louis, Mo.). The entire sensor chip surface was conditioned with five injections of conditioning solution (1 M NaCl, 50 mM NaOH) and equilibrated with PBS buffer containing 0.005% polysorbate 20. Two to three thousand resonance units (RU) of biotinylated anti-human IgG antibody (Sigma) were immobilized onto the SA chip followed by an injection of regeneration buffer (glycine-HCl, pH 2.2). […] For each antibody at one concentration, the chip was regenerated and equilibrated. […] Thermodynamic and kinetic rate constants of binding were calculated using the Biacore Evaluation software.
On the technique in general: SPR reads the build-up and loss of mass on a sensor chip optically.

The target in assay [2] is T1, recombinant soluble PSMA (rsPSMA). Description: Biacore, rsPSMA. The protocol:
as §2

Assay [3] deals with T2, prostate specific membrane antigen (PSMA), full-length human (human, UniProt Q04609 1-750).
T2 construct: also called cell-surface PSMA; full-length PSMA
T2 sequence (Q04609 whole entry): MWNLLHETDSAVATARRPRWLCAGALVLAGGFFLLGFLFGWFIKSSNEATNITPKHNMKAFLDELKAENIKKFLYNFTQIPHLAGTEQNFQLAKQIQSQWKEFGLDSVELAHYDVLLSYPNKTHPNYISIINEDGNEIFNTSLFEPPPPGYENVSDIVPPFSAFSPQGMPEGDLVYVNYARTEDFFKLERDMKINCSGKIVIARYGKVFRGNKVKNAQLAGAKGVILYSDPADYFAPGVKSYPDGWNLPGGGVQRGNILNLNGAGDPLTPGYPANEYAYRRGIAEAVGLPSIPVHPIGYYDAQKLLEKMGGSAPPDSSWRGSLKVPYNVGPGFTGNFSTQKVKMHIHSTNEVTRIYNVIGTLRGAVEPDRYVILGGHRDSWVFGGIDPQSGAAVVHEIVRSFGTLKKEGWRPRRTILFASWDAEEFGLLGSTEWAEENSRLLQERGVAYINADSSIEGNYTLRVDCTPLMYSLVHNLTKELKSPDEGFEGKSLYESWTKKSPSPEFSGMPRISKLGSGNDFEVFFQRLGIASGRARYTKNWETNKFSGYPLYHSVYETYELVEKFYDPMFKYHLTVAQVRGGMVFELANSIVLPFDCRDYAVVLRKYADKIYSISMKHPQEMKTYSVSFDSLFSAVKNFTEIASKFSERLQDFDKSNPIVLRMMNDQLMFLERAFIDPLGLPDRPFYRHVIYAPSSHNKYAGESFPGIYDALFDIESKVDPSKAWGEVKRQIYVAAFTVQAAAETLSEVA
Description: FACS, C4-2 cells. On the technique in general: Flow cytometry measures light scatter and fluorescence of single cells or particles in a stream.

Assay [4] addresses T2, prostate specific membrane antigen …. Description: FACS, supernatant.
The target in assay [5] is T1, recombinant soluble PSMA (rsPSMA). Description: cell-based or functional assay.
Assay [6] addresses T2, prostate specific membrane antigen …. Description: FACS, 3T3-PSMA cells. As for the experimental part:
Control anti-human IgG (Caltag, Burlingame, Calif.) was used to establish background binding. After two washes in PBS, the cells were incubated with anti-human IgG (BD Pharmingen, San Diego, Calif.) for 30 minutes on ice. Cells were washed twice in PBS, resuspended in 250 μl PBS and analyzed by flow cytometry using a FACScan machine (Becton Dickinson, Franklin Lakes, N.J.) and CellQuest software. Viable cells were gated by forward scatter and side scatter parameters, and binding was quantified using histogram plots of mean fluorescence intensity (MFI) levels.

The target is the same in assay [7]. Description: lysate EIA, supernatant.
Assay [8] has as its target T1, recombinant soluble PSMA (rsPSMA). Briefly: Biacore; Avg KD of purified 006. The protocol: as §1, §2
The target is the same in assay [9]. Description: Biacore, captured mAb, rsPSMA in flow. The protocol:
as §1, §2

For assay [10] the target is unchanged. Description: Biacore; Avg KD of purified 10.3. The protocol:
as §1, §2

The target of assay [11] is T2, prostate specific membrane antigen …. Briefly: cell-based or functional assay.

T1 sequence (Q04609 44-750): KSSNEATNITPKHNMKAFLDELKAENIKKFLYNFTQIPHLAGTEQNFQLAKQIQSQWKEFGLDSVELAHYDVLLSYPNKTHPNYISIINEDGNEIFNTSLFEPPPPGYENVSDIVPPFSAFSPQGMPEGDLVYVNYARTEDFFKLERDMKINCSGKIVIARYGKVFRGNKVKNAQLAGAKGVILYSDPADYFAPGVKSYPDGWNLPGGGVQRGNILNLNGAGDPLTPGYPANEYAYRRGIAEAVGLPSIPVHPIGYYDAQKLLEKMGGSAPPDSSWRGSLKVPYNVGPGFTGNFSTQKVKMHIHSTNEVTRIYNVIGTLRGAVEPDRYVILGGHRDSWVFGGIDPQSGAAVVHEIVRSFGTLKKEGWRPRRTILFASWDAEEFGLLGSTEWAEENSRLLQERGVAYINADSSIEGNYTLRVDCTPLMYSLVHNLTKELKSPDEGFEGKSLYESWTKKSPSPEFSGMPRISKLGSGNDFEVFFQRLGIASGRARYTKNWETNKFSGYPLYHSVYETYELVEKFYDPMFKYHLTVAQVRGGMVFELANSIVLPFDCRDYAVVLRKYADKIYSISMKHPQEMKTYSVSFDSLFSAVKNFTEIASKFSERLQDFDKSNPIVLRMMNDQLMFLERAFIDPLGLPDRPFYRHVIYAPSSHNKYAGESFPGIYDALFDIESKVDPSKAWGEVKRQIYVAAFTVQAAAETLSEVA

B1: AB-PG1-XG1-006 (antibody, V domains shown)
VH: QVQLVESGGGVVQPGRSLRLSCAASGFAFSRYGMHWVRQAPGKGLEWVAVIWYDGSNKYYADSVKGRFTISRDNSKNTQYLQMNSLRAEDTAVYYCARGGDFLYYYYYGMDVWGQGTTVTVSS
VL: DIQMTQSPSSLSASVGDRVTITCRASQGISNYLAWYQQKTGKVPKFLIYEASTLQSGVPSRFSGGGSGTDFTLTISSLQPEDVATYYCQNYNSAPFTFGPGTKVDIK
notes: also called XG-006; PRGX1-XG1-006
A word on the Kd: it is a measure of binding affinity in units of concentration. By koff is commonly meant the rate constant with which the complex falls apart. Broadly, the kon is a measure of how fast the partners come together. For the molecule B1, the Kd is 0.492 nM in assay [1]; 0.48 nM in assay [2]; 0.514 nM in [8]; 0.466 nM and 0.562 nM and 0.492 nM in assay [9]. Also, the koff in assay [2] is 6.4e-05 s⁻¹; in assay [9], 0.000137 s⁻¹ and 0.000127 s⁻¹ and 6.4e-05 s⁻¹. Further, the kon in assay [2] is 130000 M⁻¹ s⁻¹; in assay [9], 294000 M⁻¹ s⁻¹ and 226000 M⁻¹ s⁻¹ and 130000 M⁻¹ s⁻¹. Moreover, the “C4.2 FACS” value in assay [3] turned out to be 9.5. The “PGNX FACS” value in assay [4] stood at 114. Besides, the “IC50, folate hydrolase activity” value in [5] was 9.34 mg/L. Moreover, the “AVG Max binding” value in assay [6] is 183. Further, in assay [7], the “Lysate EIA” value turned out to be 0.39.

B2: PSMA 10.3 (antibody, V domains shown)
VH: QEQLVESGGGVVQPGRSLRLSCAASGFTFSTYGMHWVRQAPGKGLEWVAVTWHDGSNKYYADSVKGRFTISRDNSKNTLYLQMNSLRAEDTAVYYCARGGVGATYYYYYGMDVWGQGTTVTVSS
VL: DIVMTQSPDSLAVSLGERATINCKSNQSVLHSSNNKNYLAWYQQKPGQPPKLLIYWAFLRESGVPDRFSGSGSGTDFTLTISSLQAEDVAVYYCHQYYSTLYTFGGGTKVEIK
Consider B2, for which the values for the Kd in assay [1], in assay [2] and in assay [10] were 1.91 nM, 1.9 nM and 0.205 nM, respectively. For the same molecule, the koff in assay [2] is 0.000364 s⁻¹. Further, the kon was 190000 M⁻¹ s⁻¹ in assay [2]; 190000 M⁻¹ s⁻¹ and 328000 M⁻¹ s⁻¹ and 296000 M⁻¹ s⁻¹ in assay [9]. Also, the “AVG Max binding” value in [6] turned out to be 181. Also, the “Lysate EIA” value in assay [7] was 1.06.

B3: AB-PG1-XG1-069 (antibody, V domains shown)
VH: EVQLVQSGAEVKKPGESLKISCKGSGYSFTSYWIGWVRQMPGKGLEWMGIIYPGDSDTRYSPSFQGQVTISADKSISTAYLQWSSLKASDTAMYYCARRMAAAGPFDYWGQGTLVTVSS
VL: GIVMTQSPATLSVSPGERATLSCRTSQSIGWNLAWYQQKPGQAPRLLIYGASSRTTGIPARFSGSGSGTEFTLTISSLQSEDSAVYYCQHYDNWPMCSFGQGTELEIK
notes: also called PRGX1-XG1-069
B3: the binding result in assay [2] is on record as “no binding”. Further, in assay [6], the “AVG Max binding” value is 71.

B4: ^225Ac labeled mAb 026 (antibody, V domains shown)
VH: QVQLVESGGGVVQPGRSLRLSCAASGFTFSNYVMHWVRQAPGKGLEWVAIIWYDGSNKYYADSVKGRFTISRDNSKNTLYLQMNSLRAEDTAVYYCAGGYNWNYEYHYYGMDVWGQGTTVTVSS
VL: DIQMTQSPSSLSASVGDRVTITCRASQGITNYLAWFQQKPGKAPKSLIYAASSLQSGVPSKFSGSGSGTDFSLTISSLQPEDFATYYCQQYNSYPITFGQGTRLEIK
On to B4, for which, in [11], the “IC50, ^3H thymidine incorporation, C4-2 cells” value stood at 0.12 nCi/mL; the “IC50, cytotoxicity on C4-2 and LNCaP cells” value is below 1 nCi/mL; the “selectivity of killing vs. control antibody (HuIgG)” value is above 50 fold; the “selectivity of killing vs. control mAb (HuM195)” value is above 100 fold. The “selectivity of killing, C4-2 vs. PC3” value in assay [11] is above 50 fold.

B5: AB-PG1-XG1-051 (antibody, V domains shown)
VH: QVQLVESGGGVVQPGRSLRLSCAASGFTFSSYGMHWVRQAPGKGLDWVAIIWHDGSNKYYADSVKGRFTISRDNSKKTLYLQMNSLRAEDTAVYYCARAWAYDYGDYEYYFGMDVWGQGTTVTVSS
VL: B4 VL with T30S, N31H, S72T, Y94F, I96L, Q100G, R103K, L104V
notes: also called XG-051; PRGX1-XG1-051
B5: in [2], the Kd is 0.58 nM, the koff turned out to be 8.2e-05 s⁻¹ and the kon is 140000 M⁻¹ s⁻¹. Further, the “C4.2 FACS” value in assay [3] came out at 9.9. Besides, the “PGNX FACS” value in assay [4] was 83. Also, the “AVG Max binding” value in [6] was determined as 202. Further, the “Lysate EIA” value in assay [7] turned out to be 0.48.

B6: AB-PG1-XG1-026 (antibody, V domains shown)
VH: B4 VH
VL: B4 VL
notes: also called XG-026; PRGX1-XG1-026
Regarding B6, in [2], the Kd amounted to 0.2 nM, the koff was 2.9e-05 s⁻¹ and the kon is 150000 M⁻¹ s⁻¹. The “IC50, folate hydrolase activity” value in assay [5] came out at 1.39 mg/L. In assay [6], the “AVG Max binding” value turned out to be 148.

B7: AB-PG1-XG1-077 (antibody, V domains shown)
VH: QVQLVESGGGVVQPGRSLRLSCAASGFTFISYGMHWVRQAPGKGLEWVAVISYDGSNKYYADSVKGRFTISRDNSKNTLYLQMNSLRAEDTAVYYCARVLVGALYYYNYYGMDVWGQGTTVTVSS
VL: DIVMTQTPLSLSVTPGQPASISCKSSQSLLHSDGKTFLYWYLQKPGQPPQLLIYEVSNRFSGVPDRFSGSGSGTDFTLKISRVEAEDVGLYYCMQSIQLPLTFGGGTKVEIK
notes: also called PRGX1-XG1-077
With B7, in assay [2], the Kd was 1.6 nM, the koff came out at 0.000104 s⁻¹ and the kon came to 60000 M⁻¹ s⁻¹. Further, the “C4.2 FACS” value in assay [3] was determined as 12.4. The “PGNX FACS” value in assay [4] is 392. In addition, the “AVG Max binding” value in assay [6] worked out at 227. For the same molecule, in assay [7], the “Lysate EIA” value came to 0.45.
